Experimental data as given in patent publication US20100093619A1.

How the values were obtained:
Test in all cases: cell-based or functional assay
[1] = biological target: cysteine-like cathepsin-B protease activity from Acyrthosiphon pisum (pea aphid) extracts (Acyrthosiphon pisum)
[2] = biological target: cysteine-like cathepsin-B protease activity from Leptinotarsa decemlineata (Colorado potato beetle) gut extracts (Leptinotarsa decemlineata)
[3] = biological target: cysteine-like cathepsin-L protease activity from Acyrthosiphon pisum (pea aphid) extracts (Acyrthosiphon pisum)
[4] = biological target: cysteine-like cathepsin-L protease activity from Bemisia tabaci (sweetpotato whitefly) extracts (Bemisia tabaci)
[5] = biological target: cysteine-like cathepsin-L protease activity from Leptinotarsa decemlineata (Colorado potato beetle) gut extracts (Leptinotarsa decemlineata)
[6] = biological target: cysteine-like cathepsin-L protease activity from Tetranychus urticae (spider mite) extracts (Tetranychus urticae)
[7] = biological target: cysteine-like cathepsin-L protease activity from Tribolium castaneum (red flour beetle) extracts (Tribolium castaneum)
[8] = biological target: serine-like chymotrypsin protease activity from Sesamia nonagrioides (Mediterranean corn borer) gut extracts (Sesamia nonagrioides)
[9] = biological target: serine-like chymotrypsin protease activity from Spodoptera littoralis (cotton leafworm) gut extracts (Spodoptera littoralis)
[10] = biological target: serine-like trypsin protease activity from Ostrinia nubilalis (European corn borer) gut extracts (Ostrinia nubilalis)
[11] = biological target: serine-like trypsin protease activity from Sesamia nonagrioides (Mediterranean corn borer) gut extracts (Sesamia nonagrioides)
[12] = biological target: serine-like trypsin protease activity from Spodoptera littoralis (cotton leafworm) gut extracts (Spodoptera littoralis)

% Inhibition of cathepsin B activity at 1.25 µM AtSerpin1 [1]: 50%
% Inhibition of cathepsin B activity at 5 µM AtSerpin1 [1]: 55%
% Inhibition of cathepsin B activity at 10 µM AtSerpin1 [1]: 55%
concentration of AtSerpin1 for 50% inhibition of cathepsin-B activity (FIG. 14) [1]: 1 µM
% Inhibition of cathepsin B activity at 1.25 µM AtSerpin1 [2]: 40%
% Inhibition of cathepsin B activity at 5 µM AtSerpin1 [2]: 47%
% Inhibition of cathepsin B activity at 10 µM AtSerpin1 [2]: 46%
concentration of AtSerpin1 for 50% inhibition of cathepsin-B activity (fluorometric substrate, FIG. 12) [2]: > 10 µM
% Inhibition of cathepsin L activity at 1.25 µM AtSerpin1 [3]: 42%
% Inhibition of cathepsin L activity at 5 µM AtSerpin1 [3]: 42%
% Inhibition of cathepsin L activity at 10 µM AtSerpin1 [3]: 39%
plateau of % inhibition of cathepsin-L activity (FIG. 14) [3]: 60%
% inhibition of cathepsin-L activity at 20 µM AtSerpin1 (FIG. 15) [4]: 45%
% Inhibition of cathepsin L activity at 1.25 µM AtSerpin1 [5]: 4%
% Inhibition of cathepsin L activity at 5 µM AtSerpin1 [5]: 34%
% Inhibition of cathepsin L activity at 10 µM AtSerpin1 [5]: 48%
concentration of AtSerpin1 for 50% inhibition of cathepsin-L activity (fluorometric substrate, FIG. 12) [5]: > 10 µM
concentration of AtSerpin1 for 50% inhibition of cathepsin-L activity (FIG. 16) [6]: 2 µM
IC50 of inhibition of cathepsin-L activity (FIG. 13) [7]: 4 µM
concentration of AtSerpin1 for ≧50% inhibition of chymotrypsin activity (FIG. 11) [8]: > 10 µM
% Inhibition of chymotrypsin activity at 1.25 µM AtSerpin1 [9]: 10%
% Inhibition of chymotrypsin activity at 5 µM AtSerpin1 [9]: 31%
% Inhibition of chymotrypsin activity at 10 µM AtSerpin1 [9]: 40%
concentration of AtSerpin1 for 50% inhibition of chymotrypsin activity (FIG. 10) [9]: 10 to 20 µM
% Inhibition of trypsin activity at 2 µM AtSerpin1 [10]: 28%
% Inhibition of trypsin activity at 1.25 µM AtSerpin1 [11]: 90%
% Inhibition of trypsin activity at 5 µM AtSerpin1 [11]: 97%
% Inhibition of trypsin activity at 10 µM AtSerpin1 [11]: 98%
concentration of AtSerpin1 for 50% inhibition of trypsin activity (FIG. 11) [11]: 0.1 µM
% Inhibition of trypsin activity at 1.25 µM AtSerpin1 [12]: 52%
% Inhibition of trypsin activity at 5 µM AtSerpin1 [12]: 83%
% Inhibition of trypsin activity at 10 µM AtSerpin1 [12]: 90%
concentration of AtSerpin1 for 50% inhibition of trypsin activity (fluorometric substrate, FIG. 10) [12]: 1 µM
B1: recombinant AtSerpin1 (Arabidopsis thaliana serpin-1, At1g47710), HIS6-tagged (protein, not shown: small tags and cut ends)
chain: MDVRESISLQNQVSMNLAKHVITTVSQNSNVIFSPASINVVLSIIAAGSAGATKDQILSFLKFSSTDQLNSFSSEIVSAVLADGSANGGPKLSVANGAWIDKSLSFKPSFKQLLEDSYKAASNQADFQSKAVEVIAEVNSWAEKETNGLITEVLPEGSADSMTKLIFANALYFKGTWNEKFDESLTQEGEFHLLDGNKVTAPFMTSKKKQYVSAYDGFKVLGLPYLQGQDKRQFSMYFYLPDANNGLSDLLDKIVSTPGFLDNHIPRRQVKVREFKIPKFKFSFGFDASNVLKGLGLTSPFSGEEGLTEMVESPEMGKNLCVSNIFHKACIEVNEEGTEAAAASAGVIKLRGLLMEEDEIDFVADHPFLLVVTENITGVVLFIGQVVDPLH
